Patent US20260124312A1 (Bicycle, published 2026)
*1 amine or outer side, *2 acyl side, *3 side chain or, on linkers, in order; H or OH if unused. Bridges are numbered along the chain shown (N, C = ends). Where no end group is shown, it is not given here. [ ]: non-standard residue; d: D form. The star is where a group is joined. DM1‑SS‑ = DM1-SS- (SPDB) linker/toxin, COc1cc2cc(c1Cl)N(C)C(=O)C[C@H](OC(=O)[C@H](C)N(C)C(=O)CCSSCCCC(=O)*)[C@]1(C)O[C@H]1[C@H](C)[C@@H]1C[C@@](O)(NC(=O)O1)[C@H](OC)/C=C/C=C(\C)C2; TATA = O=C(CC[*:1])N1CN(C(=O)CC[*:2])CN(C(=O)CC[*:3])C1; DM1‑SS(SO3H)‑ = DM1-SS(SO3H)- (SO3H-SPDB) linker/toxin; DM1‑SS‑(Me)‑ = DM1-SS-(Me)- (SPP) linker/toxin; PABC = O=C(OCc1ccc(N[*:1])cc1)[*:2]; Glutaryl = O=C(CCCC(=O)[*:2])[*:1]; hArg = N=C(N)NCCCC[C@H](N)C(=O)O; Cit = NC(=O)NCCC[C@H](N)C(=O)O; βAla = NCCC(=O)O; Sar = CNCC(=O)O

Tests used:
[1] = molecular target: Human EphA2 (in house, 0.95 mol biotin/monomer) (Human) (UniProt P29317); assay: SPR (Biacore), biotinylated human EphA2 on streptavidin chip
Human EphA2 (in house, 0.95 mol biotin/monomer) (Human), sequence (P29317 25-534 limits assumed): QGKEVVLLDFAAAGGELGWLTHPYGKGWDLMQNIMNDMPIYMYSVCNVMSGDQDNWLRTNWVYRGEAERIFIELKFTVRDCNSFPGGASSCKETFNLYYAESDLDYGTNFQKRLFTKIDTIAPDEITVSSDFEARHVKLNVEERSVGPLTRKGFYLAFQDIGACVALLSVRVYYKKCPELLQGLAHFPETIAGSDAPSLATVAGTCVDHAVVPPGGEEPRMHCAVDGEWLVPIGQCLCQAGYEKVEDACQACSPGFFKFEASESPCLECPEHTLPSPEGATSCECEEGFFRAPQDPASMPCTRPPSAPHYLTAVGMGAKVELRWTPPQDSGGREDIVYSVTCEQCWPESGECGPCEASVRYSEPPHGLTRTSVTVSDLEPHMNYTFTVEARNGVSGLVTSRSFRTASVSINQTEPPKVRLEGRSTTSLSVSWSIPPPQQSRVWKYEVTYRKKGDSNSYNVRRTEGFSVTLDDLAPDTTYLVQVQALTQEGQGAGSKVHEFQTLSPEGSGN

Mouse EphA2 (Ecto) = molecular target: T1, Mouse EphA2 (Ecto) (Mouse, UniProt Q03145 26-538); assay: FP competition vs Reference Compound C
T1 construct: extracellular domain
T1 sequence (Q03145 26-538): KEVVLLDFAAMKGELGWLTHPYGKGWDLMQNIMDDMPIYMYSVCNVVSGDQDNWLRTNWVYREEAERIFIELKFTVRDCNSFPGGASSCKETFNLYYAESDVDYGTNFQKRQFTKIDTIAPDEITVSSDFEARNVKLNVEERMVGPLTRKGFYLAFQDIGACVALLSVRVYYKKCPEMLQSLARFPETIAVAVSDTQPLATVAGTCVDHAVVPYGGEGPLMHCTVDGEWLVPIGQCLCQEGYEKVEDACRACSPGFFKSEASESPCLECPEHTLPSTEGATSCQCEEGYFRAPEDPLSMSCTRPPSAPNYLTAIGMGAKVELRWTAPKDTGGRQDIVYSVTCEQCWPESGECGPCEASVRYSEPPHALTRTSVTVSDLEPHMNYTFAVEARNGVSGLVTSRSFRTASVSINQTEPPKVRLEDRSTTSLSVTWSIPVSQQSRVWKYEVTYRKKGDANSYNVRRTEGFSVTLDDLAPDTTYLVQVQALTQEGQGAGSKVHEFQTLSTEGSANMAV

[2] = molecular target: Mouse EphA2 Fc fusion (R&D Systems 639-A2) (Mouse) (UniProt Q03145); assay: SPR (Biacore), mouse EphA2-Fc captured by anti-human IgG
Mouse EphA2 Fc fusion (R&D Systems 639-A2) (Mouse), sequence (Q03145 26-538): as above

[3] = molecular target: Rat EphA2 (in house, 1.4 mol biotin/monomer) (Rat) (UniProt D3ZBN3); assay: SPR (Biacore), biotinylated rat EphA2 on streptavidin chip

Row | Kd [1] [nM] | koff [1] [s⁻¹] | kon [1] [M⁻¹ s⁻¹] | t1/2 [1] [min] | Ki (Mouse EphA2 (Ecto)) [nM] | Kd [2] [nM] | koff [2] [s⁻¹] | kon [2] [M⁻¹ s⁻¹] | t1/2 [2] [min] | Kd [3] [nM] | koff [3] [s⁻¹] | kon [3] [M⁻¹ s⁻¹] | t1/2 [3] [min] | Binder
1 | 1.64 | 0.00365 | 2.23e+06 | 3.2 | – | – | – | – | – | – | – | – | – | {MMAE-PABC-Cit-Trp-Glutaryl}-[βAla][Sar][Sar][Sar][Sar][Sar][Sar][Sar][Sar][Sar][Sar]A[hArg]DCPLVNPLCLHPGWTC (linker 15-22-29 via TATA; not fully specified (C-terminus)) [BCY6034]
2 | – | – | – | – | 7.27 | – | – | – | – | – | – | – | – | ACPLVNPLCLHPGWTCLHG (linker 2-9-16 via TATA; not fully specified (C-terminus)) [Bicycle Compound 73]
3 | 2.42 | 0.00242 | 987000 | 4.8 | – | 18.3 | 0.00597 | 327000 | 1.9 | 28.8 | 0.00364 | 126000 | 3.2 | {DM1‑SS(SO3H)‑}-[βAla][Sar][Sar][Sar][Sar][Sar][Sar][Sar][Sar][Sar][Sar]A[hArg]DCPLVNPLCLHPGWTC (linker 15-22-29 via TATA; not fully specified (C-terminus)) [BCY6082]

Second part, the binder before the results:

Row | Binder | Kd [1] [nM] | koff [1] [s⁻¹] | kon [1] [M⁻¹ s⁻¹] | t1/2 [1] [min] | Ki (Mouse EphA2 (Ecto)) [nM] | Kd [2] [nM] | koff [2] [s⁻¹] | kon [2] [M⁻¹ s⁻¹] | t1/2 [2] [min] | Kd [3] [nM] | koff [3] [s⁻¹] | kon [3] [M⁻¹ s⁻¹] | t1/2 [3] [min]
4 | {MMAE-PABC-Cit-Val-Glutaryl}-[βAla][Sar][Sar][Sar][Sar][Sar][Sar][Sar][Sar][Sar][Sar]A[hArg]DCPLVNPLCLHPGWTC (linker 15-22-29 via TATA; not fully specified (C-terminus)) [BCY6033] | 3.41 | 0.00343 | 999000 | 3.5 | – | 21.8 | 0.00637 | 292000 | 1.8 | 166 | 0.00442 | 26700 | 2.6
5 | {DM1‑SS‑(Me)‑}-[βAla][Sar][Sar][Sar][Sar][Sar][Sar][Sar][Sar][Sar][Sar]A[hArg]DCPLVNPLCLHPGWTC (linker 15-22-29 via TATA; not fully specified (C-terminus)) [BCY6032] | 2.1 | 0.00527 | 2.52e+06 | 2.2 | – | – | – | – | – | – | – | – | –
6 | {DM1‑SS‑}-[βAla][Sar][Sar][Sar][Sar][Sar][Sar][Sar][Sar][Sar][Sar]A[hArg]DCPLVNPLCLHPGWTC (linker 15-22-29 via TATA; not fully specified (C-terminus)) [BCY6031] | 1.99 | 0.00495 | 2.49e+06 | 2.3 | – | – | – | – | – | – | – | – | –
